Laboratory results reported in patent US20220228157A1, “GENE EDITING IN DIVERSE BACTERIA” (priority 2019, published 2022).
Where two headings read alike, the source gives them in different places.

B1: PapRecT: SSAP from Pseudomonas aeruginosa, SEQ ID NO: 24, UniParc ID: UPI0001E9E6CB (protein, listed as Pseudomonas aeruginosa)
chain: MGTALTPLLTKFATRYEMGTTPEEVANTLKQTCFKGQVNDSQMVALLIVADQYKLNPFTKELYAFPDKNNGIVPVVGVDGWARIINENPQFDGMEFSMDQQGTECTCKIYRKDRSHAISATEYMAECKRNTQPWQSHPRRMLRHKAMIQCARLAFGFAGIYDQDEAERIVERDVTPAEQYEDVSEAICLIKDSPTMEDLQAAFSNAWKAYKTKGARDQLTAAKDQRKKELLDAPIDVEFEETGDDRAA
B2: Redβ: Redβ SSAP from Enterobacteria phage λ, SEQ ID NO: 474 (protein)
chain: MSTALATLAGKLAERVGMDSVDPQELITTLRQTAFKCDASDAQFIALLIVANQYGLNPWTKEIYAFPDKQNGIVPVVGVDGWSRIINENQQFDGMDFEQDNESCTCRIYRKDRNHPICVTEWMDECRREPFKTREGREITGPWQSHPKRMLRHKAMIQCARLAFGFAGIYDKDEAERIVENTAYTAERQPERDITPVNDETMQEINTLLIALDKTWDDDLLPLCSQIFRRDIRASSELTQAEAVKALGFLKQKATEQKVAA
modifications: Bacteriophage Lambda

How the values were obtained:
E. coli = experiment: Allelic recombination frequency, selective vs non-selective plates; format: cell-based, Escherichia coli; details: RecT alone
Procedure: Four variants known to enable high genome editing efficiency were selected (Redβ and PapRecT in E. coli, LrpRecT in L. lactis, and MspRecT in M. smegmatis), and tested codon optimized versions of all four in both E. coli (gram-negative), and L. lactis (gram-positive). Genome editing efficiency was measured by introducing oligos encoding known antibiotic resistance mutations, and compared the antibiotic resistant cell counts to the total number of viable cells in the population (FIGS. 17E-17F). […] In L. lactis, LrpRecT was the only functional homolog, and improved oligo incorporation 7,700-fold, while the three other RecT variants were nearly non-functional, improving oligo incorporation less than 7-fold (FIG. 17H). No RecT protein functioned well both in E. coli and L. lactis.
A single colony of E. coli was grown overnight to saturation. In the morning 30 μL of dense culture was inoculated into 3 mL of fresh media and grown for 1 hour. To induce gene expression of the pARC8 vector for recombineering experiments, L-arabinose was added to a final concentration of 0.2% (w/v) and the cells were grown an additional hour. 1 mL of cells were pelleted at 4° C. by centrifugation at 12,000×g for 2.5 minutes and washed twice with 1 mL of ice-cold dH2O. Cells were resuspended in 50 μL ice-cold dH2O containing DNA and transferred to a pre-chilled 0.1 cm electroporation cuvette.
Electrocompetent cells were electroporated with 90-mer oligos at: 1 uM for E. coli, 50 μg for L. lactis, and 10 uM for C. crescentus. 70-mer oligos were used at 1 μg for M. smegmatis. All oligos were obtained from IDT and can be found under “Oligonucleotides for genome editing” in materials and methods. For dsDNA experiments L. lactis was electroporated with 1.5 μg purified linear dsDNA. Cells were electroporated using a Bio-Rad gene pulser set to 25 μF, 200 S2, and 1.8 kV for E. coli, 2.0 kV for L. lactis, and 1.5 kV for C. crescentus and to 1000Ω and 2.5 kV for M. smegmatis. Immediately after electroporation, cells were recovered in fresh media for 3 hours for E. coli, 1 hour for L. lactis, overnight for M. smegmatis and overnight for C. crescentus. L. lactis recovery media was supplemented with MgCl2 and CaCl2) at a concentration of 20 mM and 2 mM, respectively. E. coli recovery media was supplemented with carbenicillin. M. smegmatis recovery media was supplemented with hygromycin. C. crescentus recovery media was supplemented with 0.3% xylose and kanamycin. After recovery, the cells were serial diluted and plated on non-selective vs. selective agar plates to obtain approximately 50-500 CFU/plate. Colonies were counted using a custom script in Fiji, and allelic recombination frequency was calculated by dividing the number of colonies on selective plates, with the number of colonies on non-selective plates.

[1] = tested on: Pseudomonas aeruginosa PAO1; experiment: Recombineering efficiency by selective plating; format: cell-based
Text: To test the activity of PapRecT and CspRecT in these three organisms, the broad-host-range pORTMAGE system (Nyerges et al., Proc. Natl. Acad. Sci. U.S.A. 113, 2502-2507 (2016)) was built on as described above. For experiments in E. coli PapRecT or CspRecT was subcloned in place of Redβ into pORTMAGE311B (Szili et al., Antimicrob. Agents Chemother. AAC.00207-19 (2019) doi:10.1128/AAC.00207-19) (FIGS. 10A-10B; Addgene accession: #120418), which transiently disrupts MMR with EcMutL_E32K, and whose RSF1010 origin of replication and m-toluic-acid-based expression system allows the plasmid to be deployed over a broad range of bacterial hosts (Honda et al., Proc. Natl. Acad. Sci. U.S.A. 88, 179-183 (1991); Gawin et al., Microb. Biotechnol. 10, 702 (2017)). These same pORTMAGE-based constructs were used for testing in C. freundii and K. pneumoniae. […] It was found, however, that the efficiency of the plasmid construct was lower in P. aeruginosa than in the enterobacterial species that pORTMAGE was optimized for. Therefore, to increase editing efficiency in P. aeruginosa, i.) ribosomal binding sites (RBS) for PapRecT and EcMutL were optimized, ii.) EcMutL_E32K was replaced with its equivalent homologous mutant from P. aeruginosa (PaMutL_E36K), iii.) the native P. aeruginosa coding sequence for PapRecT was incorporated instead of the E. coli codon-optimized version (FIG. 13).
Virulent strains of P. aeruginosa are a frequent cause of acute infections in healthy individuals, as well as chronic infections in high-risk patients, such as those suffering from cystic fibrosis (Marvig et al., Nat. Genet. 47, 57-64 (2015)). The rate of antibiotic resistance in this species is growing, with strains adapting quickly to all clinically applied antibiotics (AbdulWahab et al., Lung India Off. Organ Indian Chest Soc. 34, 527-531 (2017); Tacconelli et al., Lancet Infect. Dis. 18, 318-327 (2018)). […] By genotyping and characterizing resistant colonies, the Minimum Inhibitory Concentration (MIC) of CIP for various resistant genotypes could be determined (Table 2, FIG. 14). […]

Molecule | Improvement of oligo incorporation (E. coli) [fold] | Editing performance in P. aeruginosa [1] | Editing performance in P. aeruginosa ([1]; listed as SSAP SEQ ID NO: 24)
B1 | 2700 | performed the best | functions at high efficiency
B2 | 1600 | does not work | 
